According to paper PMC5388602 (Biochemistry, 2016):

Target: the molecule itself
Assay: crystal structure

B1: SrpA sialoglycan binding region (SrpABR), tag cleaved, as crystallised (domain or fragment)
chain: RRATDTTPPTITVPSDIIAYRGEEFEFYFEITDDSGQVKNIELSTFGKPLGLNWLEYSEDNFNVPGNATSDNPLRVRVHGTVPLNEPIPADKNRAQFTRTIRAWDAAGNVSSNITFVIKYRAQTDKYNPADPTITYVDRLSSLSPSEKNAVEAAVRAANPQIPAAARITVSANGTVTITYPDSSTDTITANRVVKDLASSR
- stoichiometry N: 2
